Results: PMC9482650, “Quantitative fragmentomics allow affinity mapping of interactomes” (Nature Communications, 2022)
Residue numbers refer to the chain shown, from its start. Each block holds one binder with its values, some of them ahead of it.

Experiments:
Assay in all cases: holdup assay
Parameters in all cases: key: below the threshold = too weak to quantify, mostly under pKd 3.1 to 4
[1] = target: T1, DLG3_2, Q92796
T1 sequence (Q92796 221-321, limits assumed, looked up): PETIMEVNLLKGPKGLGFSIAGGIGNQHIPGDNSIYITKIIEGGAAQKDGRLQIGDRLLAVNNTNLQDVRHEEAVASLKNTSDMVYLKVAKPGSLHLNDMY

[2] = target: T2, APBA2_2, Q99767
T2 sequence (Q99767 654-744, limits assumed, looked up): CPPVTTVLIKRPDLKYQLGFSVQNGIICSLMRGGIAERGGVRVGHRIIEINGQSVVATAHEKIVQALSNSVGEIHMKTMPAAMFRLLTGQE

[3] = target: T3, PARD3B_1, Q8TEW8
T3 sequence (Q8TEW8 196-299, limits assumed, looked up): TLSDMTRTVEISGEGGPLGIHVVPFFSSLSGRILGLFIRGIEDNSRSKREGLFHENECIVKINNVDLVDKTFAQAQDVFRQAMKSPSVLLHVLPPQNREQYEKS

[4] = target: T4, MPP2, Q14168
T4 sequence (Q14168 180-250, limits assumed, looked up): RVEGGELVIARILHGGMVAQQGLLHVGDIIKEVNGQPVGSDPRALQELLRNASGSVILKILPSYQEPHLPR

[5] = target: DLG4_3, P78352
DLG4_3, P78352, sequence (P78352 306-403): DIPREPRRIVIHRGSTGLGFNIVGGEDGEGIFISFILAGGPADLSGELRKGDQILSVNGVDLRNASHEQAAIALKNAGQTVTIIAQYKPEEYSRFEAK

[6] = target: PICK1, Q9NRD5
PICK1, Q9NRD5, sequence (Q9NRD5 17-115): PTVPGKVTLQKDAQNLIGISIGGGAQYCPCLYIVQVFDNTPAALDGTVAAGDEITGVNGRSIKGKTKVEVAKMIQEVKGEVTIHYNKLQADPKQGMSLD

[7] = target: T5, SNTA1, Q13424
T5 sequence (Q13424 82-180, limits assumed, looked up): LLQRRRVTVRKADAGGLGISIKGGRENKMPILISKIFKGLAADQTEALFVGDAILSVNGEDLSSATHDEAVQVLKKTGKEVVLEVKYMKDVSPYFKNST

[8] = target: MAGI2_5, Q86UL8
MAGI2_5, Q86UL8, sequence (Q86UL8 915-1017): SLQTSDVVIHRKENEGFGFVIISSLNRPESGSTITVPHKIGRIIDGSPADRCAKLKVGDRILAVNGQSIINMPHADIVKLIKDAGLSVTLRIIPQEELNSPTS

[9] = target: FRMPD3, Q5JV73
FRMPD3, Q5JV73, sequence (Q5JV73 12-100): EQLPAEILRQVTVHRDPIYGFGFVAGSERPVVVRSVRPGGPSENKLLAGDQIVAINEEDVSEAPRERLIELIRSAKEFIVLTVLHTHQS

[10] = target: DLG2_2, Q15700
[11] = target: T6, ARHGAP21, Q5T5U3
T6 sequence (Q5T5U3 45-169, limits assumed, looked up): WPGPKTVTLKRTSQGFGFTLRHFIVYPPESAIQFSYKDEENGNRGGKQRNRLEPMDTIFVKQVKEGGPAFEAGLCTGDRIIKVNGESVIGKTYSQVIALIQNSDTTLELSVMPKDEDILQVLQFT

[12] = target: HTRA1, Q92743
HTRA1, Q92743, sequence (Q92743 360-477): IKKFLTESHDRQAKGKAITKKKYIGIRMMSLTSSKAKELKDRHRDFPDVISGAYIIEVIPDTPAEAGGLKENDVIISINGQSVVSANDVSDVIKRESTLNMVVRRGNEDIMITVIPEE

[13] = target: T7, FRMPD1, Q5SYB0
T7 sequence (Q5SYB0 52-145, limits assumed, looked up): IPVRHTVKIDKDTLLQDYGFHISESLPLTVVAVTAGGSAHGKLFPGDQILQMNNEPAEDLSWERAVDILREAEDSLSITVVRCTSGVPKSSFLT

[14] = target: LIMK2, P53671
LIMK2, P53671, sequence (P53671 143-248): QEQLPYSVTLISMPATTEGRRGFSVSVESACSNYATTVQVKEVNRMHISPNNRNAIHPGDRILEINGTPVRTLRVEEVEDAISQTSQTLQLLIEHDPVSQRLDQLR

[15] = target: T8, SNTG2, Q9NY99
T8 sequence (Q9NY99 68-166, limits assumed, looked up): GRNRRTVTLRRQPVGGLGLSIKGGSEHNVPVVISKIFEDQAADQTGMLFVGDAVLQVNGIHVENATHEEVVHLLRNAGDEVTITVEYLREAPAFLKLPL

[16] = target: IL16_3, Q14005
IL16_3, Q14005, sequence (Q14005 1107-1207): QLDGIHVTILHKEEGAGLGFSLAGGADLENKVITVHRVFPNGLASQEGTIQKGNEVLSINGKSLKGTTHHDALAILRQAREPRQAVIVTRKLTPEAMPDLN

[17] = target: PDLIM1, O00151
PDLIM1, O00151, sequence (O00151 1-87): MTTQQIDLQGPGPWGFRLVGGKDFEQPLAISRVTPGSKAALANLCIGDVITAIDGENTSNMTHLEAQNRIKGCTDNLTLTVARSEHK

[18] = target: Inadl_9, Q8NI35
Inadl_9, Q8NI35, sequence (Q8NI35 1530-1615): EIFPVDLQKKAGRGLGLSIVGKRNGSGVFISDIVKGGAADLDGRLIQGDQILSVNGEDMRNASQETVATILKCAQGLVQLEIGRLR

[19] = target: T9, MPP6, Q9NZW5
T9 sequence (Q9NZW5 125-219, limits assumed, looked up): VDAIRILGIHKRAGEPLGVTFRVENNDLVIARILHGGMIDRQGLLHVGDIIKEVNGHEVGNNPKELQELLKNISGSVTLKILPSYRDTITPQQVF

[20] = target: DLG5_1, Q8TDM6
DLG5_1, Q8TDM6, sequence (Q8TDM6 617-713): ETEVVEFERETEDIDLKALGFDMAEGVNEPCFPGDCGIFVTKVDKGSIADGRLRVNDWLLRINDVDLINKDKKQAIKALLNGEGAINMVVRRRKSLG

[21] = target: T10, APBA1_2, Q02410
T10 sequence (Q02410 742-832, limits assumed, looked up): T2 sequence (Q99767 654-744, limits assumed, looked up) with K10R, K15R, A59P, Q65H, A66I, S70A, F84Y, G89A

[22] = target: T11, RADIL, Q96JH8
T11 sequence (Q96JH8 971-1071, limits assumed, looked up): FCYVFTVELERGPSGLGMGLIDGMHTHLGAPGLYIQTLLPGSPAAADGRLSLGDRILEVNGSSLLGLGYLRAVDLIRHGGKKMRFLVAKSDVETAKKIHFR

[23] = target: DLG2_3, Q15700
[24] = target: FRMPD2_2, Q68DX3
FRMPD2_2, Q68DX3, sequence (Q68DX3 944-1038): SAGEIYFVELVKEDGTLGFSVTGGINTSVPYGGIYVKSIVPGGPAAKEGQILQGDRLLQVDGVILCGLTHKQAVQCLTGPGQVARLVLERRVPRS

[25] = target: GRIP2_5, Q9C0E4
GRIP2_5, Q9C0E4, sequence (Q9C0E4 544-642): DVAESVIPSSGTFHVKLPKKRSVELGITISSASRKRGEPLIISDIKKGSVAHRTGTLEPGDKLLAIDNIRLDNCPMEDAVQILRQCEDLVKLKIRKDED

[26] = target: T12, SIPA1L2, Q9P2F8
T12 sequence (Q9P2F8 945-1036, limits assumed, looked up): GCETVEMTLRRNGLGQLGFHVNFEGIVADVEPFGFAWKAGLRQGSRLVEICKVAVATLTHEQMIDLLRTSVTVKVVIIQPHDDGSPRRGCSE

[27] = plain residues with an end cap or a label only (N-terminal biotin on a linker: ahx)
[28] = plain residues with an end cap or a label only (N-terminal biotin on a linker: ttds)

pKd [1, 27]: below the threshold
pKd [2, 27]: below the threshold
pKd [3, 27]: below the threshold
pKd [4, 27]: below the threshold
pKd [5, 27]: below the threshold
pKd [6, 27]: below the threshold
pKd [7, 27]: below the threshold
pKd [8, 27]: below the threshold
pKd [9, 27]: below the threshold
pKd [10, 27]: below the threshold
pKd [11, 27]: below the threshold
pKd [12, 27]: below the threshold
pKd [13, 27]: below the threshold
pKd [14, 27]: below the threshold
pKd [15, 27]: below the threshold
pKd [16, 27]: below the threshold
pKd [17, 27]: below the threshold
pKd [18, 27]: below the threshold
pKd [19, 27]: below the threshold
pKd [20, 27]: below the threshold
pKd [21, 27]: below the threshold
pKd [22, 27]: below the threshold
pKd [23, 27]: below the threshold
pKd [24, 27]: below the threshold
pKd [25, 27]: below the threshold
pKd [26, 27]: below the threshold
Binder: TEAKLTETNA [MYO18A, Q92614]

pKd [1, 28]: below the threshold
pKd [2, 28]: below the threshold
pKd [3, 28]: 3.93
pKd [4, 28]: below the threshold
pKd [5, 28]: below the threshold
pKd [6, 28]: below the threshold
pKd [7, 28]: 3.73
pKd [8, 28]: 4.47
pKd [9, 28]: below the threshold
pKd [10, 28]: below the threshold
pKd [11, 28]: below the threshold
pKd [12, 28]: 3.65
pKd [13, 28]: below the threshold
pKd [14, 28]: below the threshold
pKd [15, 28]: 3.8
pKd [16, 28]: below the threshold
pKd [17, 28]: below the threshold
pKd [18, 28]: below the threshold
pKd [19, 28]: below the threshold
pKd [20, 28]: below the threshold
pKd [21, 28]: 3.89
pKd [22, 28]: below the threshold
pKd [23, 28]: below the threshold
pKd [24, 28]: below the threshold
pKd [25, 28]: below the threshold
pKd [26, 28]: below the threshold
Binder: IDNDTESTAL [ARHGAP17, Q68EM7]

pKd [1, 28]: 4.35
pKd [2, 28]: below the threshold
pKd [3, 28]: 3.94
pKd [4, 28]: below the threshold
pKd [5, 28]: 3.85
pKd [6, 28]: below the threshold
pKd [7, 28]: 4.75
pKd [8, 28]: 4.69
pKd [9, 28]: 3.6
pKd [10, 28]: 4.15
pKd [11, 28]: 4.53
pKd [12, 28]: below the threshold
pKd [13, 28]: below the threshold
pKd [14, 28]: below the threshold
pKd [15, 28]: 4.97
pKd [16, 28]: below the threshold
pKd [17, 28]: 3.85
pKd [18, 28]: below the threshold
pKd [19, 28]: below the threshold
pKd [20, 28]: below the threshold
pKd [21, 28]: 4.03
pKd [22, 28]: 3.56
pKd [23, 28]: 3.98
pKd [24, 28]: 3.77
pKd [25, 28]: below the threshold
pKd [26, 28]: below the threshold
Binder: STLTIFETAL [ABCC4, O15439]
